{"source": "patent US20050272649A1", "about": "“Conjoint administration of morphogens and ACE inhibitors in treatment of chronic renal failure” (priority 2002, published 2005)", "key": {"[1]": {"tested_on": "alloxan-induced diabetic Sprague-Dawley rats", "assay": "Alloxan-induced diabetic nephropathy model", "assay_type": "in vivo, rat", "conditions": "for serum creatinine level / proteinuria level: 12 weeks; for serum creatinine level: diabetic about 115; for proteinuria level: diabetic about 180", "method": "Similar to streptozotocin, alloxan kills pancreatic β cells and induces type I diabetes (for review, see Cheta et al. (1998) J Pediatr Endocrinol Metab 11: 11-9). Alloxan is also widely used to induce experimental diabetic nephropathy in animals (FIG. 25). Adult female Sprague-Dawley rats (weighing 200-250 g) were intraperitoneally injected with alloxan (70 mg/kg body weight) to induce hyperglycemia. Renal arteries were clamped just prior to injection to prevent direct nephrotoxicity, and then clamps were removed 5 minutes after injection. At week 16 when renal function declined, animals were treated with OP-1 (10 μg/kg body weight, 3×/week, or 30 μg/kg body weight, 1×/week), enalapril (100 mg/L in drinking water) or the combination of OP-1 and enalapril. Control animals without alloxan treatment were handled in all other ways like treated animals. The treatment duration was 12 weeks. All rats were sacrificed after […]."}, "[2]": {"tested_on": "streptozotocin diabetic Sprague-Dawley rats", "assay_type": "in vivo", "conditions": "for Protein Ex (mg/day), urine protein excretion / kidney weight: at 32 weeks; for Mortality: deaths/animals; for GFR (ml/min/100 g bw): inulin clearance at 32 weeks; for prevalence of sclerotic glomeruli (glomerulosclerosis): DM vehicle 10.7±4.0%", "method": "A long-term streptozotocin model of diabetic nephropathy was used to test and compare the therapeutic actions of BMP-7 with those of Enalapril. The study design was a treatment protocol beginning at 16 weeks when glomerular hypertrophy and proteinuria were established. The effects of therapy with BMP-7 (10, 30, or 100 μg/kg iv, biw) were compared to a maximal dose of Enalapril (20 mg/kg) and to a vehicle control. […] The GFR of 32 week diabetic Enalapril treated rats was 0.58±0.06 (not significant compared to vehicle treated and sham injected rats 0.55±0.02).\nAnimals: Female Sprague-Dawley rats 10 weeks of age weighing 190-220 g were used. Animals were allowed free access to standard rat chow and to tap water. Diabetes mellitus was induced by a single tail-vein injection of Streptozotocin (STZ 62 mg/kg of body weight, Sigma chemical company, St. Louis, Mo.) dissolved in normal saline at day 0. The diabetic state was confirmed 72 hours later by the determination of blood glucose concentration>300 mg/dl. From day 3, all the diabetic rats received daily subcutaneous injections of 1.0-7.0 u human recombinant long-acting insulin injection (Eli Lilly & Co., Indianapolis, Ind.) as required to maintain the blood glucose concentration between 300-500 mg/dl. Tail blood glucose levels were measured twice a week with an Accu—Chek™ Advantage meter (Roche Diagnostic Corporation, Indianapolis, Ind.). Body weights were taken once a week. Food and water intake were monitored daily.\nRenal hypertrophy was well developed at 16 weeks prior to treatment with vehicle, BMP-7, or enalapril. […], animals were divided into 8 groups. Group 1 were 16 weeks of DM. Group 2 were 16 weeks normal controls. Group 3 DM animals were treated with tail-vein injection of vehicle twice a week for 16 weeks. Group 4, Group 5, and Group 6 were DM animals treated with tail-vein injections of BMP-7 100, 30, and 10 μg/kg body weight respectively twice a week for 16 weeks. Group 7 were treated with Enalapril 20 mg/kg through the drinking water for 16 weeks. […] Group 1 and Group 2 animals were sacrificed at 16 weeks. The others were sacrificed at 32 weeks. All treatments began at 16 weeks and continued through 32 weeks. Glomerular filtration rate (GFR), urine albumin excretion, kidney weight, glomerular area, mesangial matrix area, interstitial volume, monocyte and macrophage infiltration, thickness of glomerular basement membrane (GBM) and glomerulosclerosis were measured.\nRenal Function: In all animals, glomerular filtration rate (GFR) was measured as the clearance of inulin. Rats were anesthetized with a Ketamine/Xylozine cocktail. A catheter was inserted into the femoral vein under a dissecting microscope for infusion. Another catheter was placed into the femoral artery for collecting blood samples. Urine was collected by bladder cannulation.\nAfter the completion of surgery, a bolus of 2 ml/kg of 3% inulin (Cypros Pharmaceutical Corp, W. Carlsbad, Calif.) and 0.2% p-aminohippurate (PAH) in normal saline was infused as a priming load, followed by a sustaining infusion of the same solution at the rate of 8 ml/h·kg. Urine collection was initiated for three 20-minute collection periods after an hour of equilibration. An arterial blood sample was obtained during each clearance period. Plasma and urine were analyzed for inulin.\nUrine volume was measured and urinary protein concentration was determined with a Bio-Rad protein assay.\nPreparation of Kidneys: After the clearance studies, the rats were euthanized. Both kidneys were rapidly removed and placed in ice-cold phosphate buffered saline (PBS). Kidneys were weighed and then sliced on a cold glass plate. Two 2 mm coronal sections were immersed in Histochoice and in 10% buffered formalin. Kidney sections were embedded in paraffin and cut at 3 μm and stained with hematoxylin and eosin, Gomori's Trichrome and periodic acid Schiff (PAS).\nRenal Morphology: The morphometric analysis was done in a blind manner. […]"}, "[3]": {"conditions": "BMP-7 10 μg/kg iv twice a week, weeks 16-32"}, "[4]": {"conditions": "BMP-7 10 μg/kg iv twice a week, weeks 16-32, listed as BMP"}, "[5]": {"conditions": "BMP-7 30 μg/kg iv twice a week, weeks 16-32"}, "[6]": {"conditions": "BMP-7 30 μg/kg iv twice a week, weeks 16-32, listed as BMP"}, "[7]": {"conditions": "BMP-7 100 μg/kg iv twice a week (high dose), weeks 16-32"}, "[8]": {"conditions": "BMP-7 100 μg/kg iv twice a week (high dose), weeks 16-32, listed as BMP"}, "[9]": {"conditions": "BMP-7 100 μg/kg iv twice a week, weeks 16-32"}}, "note": "“And” between values parts separate entries of the source, which are not always exact repeats. Identical values can stand only once. “Also recorded” adds a separate entry of the source. Like-named read-outs stand apart in the source and are kept apart here."}
{"molecule": "OP-1: osteogenic protein-1 (OP-1, also known as BMP-7), morphogen of the OP/BMP family; OP-1 used interchangeably with sBMP-7 (protein) STGSKQRSQNRSKTPKNQEALRMANVAENSSSDQRQACKKHELYVSFRDLGWQDWIIAPEGYAAYYCEGECAFPLNSYMNATNHAIVQTLVHFINPETVPKPCCAPTQLNAISVLYFDDSSNVILKKYRNMVVRACGCH", "values": [{"measurement": "proteinuria level (in words)", "setting": "[1]; 12 weeks of treatment", "value": "reduces the proteinuria level; also recorded: reduce the preteinuria level"}, {"measurement": "serum creatinine level (in words)", "setting": "[1]; 12 weeks of treatment", "value": "decreases the serum creatinine level; also recorded: dramatically reduces the serum creatinine level"}, {"measurement": "serum creatinine level", "setting": "[1]; OP-1 10 μg/kg 3×/week", "value": "about 65 μmole/L"}, {"measurement": "proteinuria level", "setting": "[1]; OP-1 10 μg/kg 3×/week", "value": "about 80 mg/dL/24 hr"}, {"measurement": "serum creatinine level", "setting": "[1]; OP-1 30 μg/kg 1×/week", "value": "~55", "unit": "µmol/L"}, {"measurement": "proteinuria level", "setting": "[1]; OP-1 30 μg/kg 1×/week", "value": "~110", "unit": "mg/dL/24 hr"}, {"measurement": "renal BMP-7 expression (in situ hybridization)", "setting": "[2]; 32 weeks", "value": "restored BMP-7 expression at high levels in the collecting duct; also recorded: restored BMP-7 expression in its normal pattern at high levels; also recorded: restored the normal distribution of BMP-7 expression"}, {"measurement": "renal Wnt4 expression (in situ hybridization)", "setting": "[2]; 32 weeks", "value": "without affecting Wnt4 expression; also recorded: do not affect Wnt4 expression; also recorded: had no effect on Wnt4 expression"}, {"measurement": "Cause-Mortality unknown", "setting": "[2]; BMP-7 10 μg/kg iv twice a week", "value": "2/9"}, {"measurement": "Protein Ex (mg/day), urine protein excretion", "setting": "[2]; [3]", "value": "59.46 ± 21.84", "unit": "mg/day"}, {"measurement": "kidney weight", "setting": "[2]; [3]", "value": "1.19 ± 0.03", "unit": "g"}, {"measurement": "Protein Ex (mg/day), urine protein excretion", "setting": "[2]; [4]", "value": "59.46 ± 21.84", "unit": "mg/day"}, {"measurement": "kidney weight", "setting": "[2]; [4]", "value": "1.19 ± 0.03", "unit": "g"}, {"measurement": "Mortality", "setting": "[2]; [3]", "value": "2/9"}, {"measurement": "GFR (ml/min/100 g bw)", "setting": "[2]; [3]", "value": "0.59±0.07", "unit": "ml/min/100 g bw"}, {"measurement": "GFR (ml/min/100 g bw)", "setting": "[2]; [4]", "value": "0.59 ± 0.07", "unit": "ml/min/100 g bw"}, {"measurement": "prevalence of sclerotic glomeruli (glomerulosclerosis)", "setting": "[2]; BMP-7 10 μg/kg, weeks 16-32", "value": "4.1±1.4", "unit": "%"}, {"measurement": "Cause-Mortality anesthesia", "setting": "[2]; BMP-7 30 μg/kg iv twice a week", "value": "1/9"}, {"measurement": "Protein Ex (mg/day), urine protein excretion", "setting": "[2]; [5]", "value": "33.02 ± 9.11", "unit": "mg/day"}, {"measurement": "kidney weight", "setting": "[2]; [5]", "value": "1.19 ± 0.03", "unit": "g"}, {"measurement": "Protein Ex (mg/day), urine protein excretion", "setting": "[2]; [6]", "value": "33.02 ± 9.11", "unit": "mg/day"}, {"measurement": "kidney weight", "setting": "[2]; [6]", "value": "1.19 ± 0.03", "unit": "g"}, {"measurement": "Mortality", "setting": "[2]; [5]", "value": "1/9"}, {"measurement": "GFR (ml/min/100 g bw)", "setting": "[2]; [5]", "value": "0.61±0.09 ml/min/100 g bw and 0.62±0.09 ml/min/100 g bw"}, {"measurement": "GFR (ml/min/100 g bw)", "setting": "[2]; [6]", "value": "0.62 ± 0.09", "unit": "ml/min/100 g bw"}, {"measurement": "prevalence of sclerotic glomeruli (glomerulosclerosis)", "setting": "[2]; BMP-7 30 μg/kg, weeks 16-32", "value": "3.5±0.8", "unit": "%"}, {"measurement": "Cause-Mortality hypoglycemia", "setting": "[2]; BMP-7 100 μg/kg iv twice a week", "value": "1/10"}, {"measurement": "kidney weight", "setting": "[2]; [7]", "value": "1.10 ± 0.03", "unit": "g"}, {"measurement": "kidney weight", "setting": "[2]; [8]", "value": "1.10 ± 0.03", "unit": "g"}, {"measurement": "GFR (ml/min/100 g bw)", "setting": "[2]; [7]", "value": "0.7±0.08", "unit": "ml/min/100 g bw"}, {"measurement": "GFR (ml/min/100 g bw)", "setting": "[2]; [8]", "value": "0.70 ± 0.08", "unit": "ml/min/100 g bw"}, {"measurement": "Protein Ex (mg/day), urine protein excretion", "setting": "[2]; [9]", "value": "14.27 ± 3.50", "unit": "mg/day"}, {"measurement": "Protein Ex (mg/day), urine protein excretion", "setting": "[2]; BMP-7 100 μg/kg iv twice a week, weeks 16-32, listed as BMP", "value": "14.27 ± 3.50", "unit": "mg/day"}, {"measurement": "Mortality", "setting": "[2]; [9]", "value": "1/10"}, {"measurement": "prevalence of sclerotic glomeruli (glomerulosclerosis)", "setting": "[2]; BMP-7 100 μg/kg, weeks 16-32", "value": "2.1±0.3", "unit": "%"}, {"measurement": "cortical interstitial area / volume", "setting": "[2]; BMP-7 high dose (100 μg/kg), weeks 16-32, DM vehicle 13.1±0.7%", "value": "10.7±0.3", "unit": "%"}, {"measurement": "monocyte/macrophage tubulointerstitial infiltration", "setting": "[2]; ED-1 positive cells, 32 weeks", "value": "decreased the tubulointerstitial infiltration"}, {"measurement": "mesangial matrix accumulation (in words)", "setting": "[2]; PAS / Trichrome histology at 32 weeks", "value": "dose dependent reduction in the accumulation of mesangial matrix; also recorded: more effective than Enalapril; also recorded: greater mesangial matrix accumulation than the two higher doses"}, {"measurement": "glomerular area / glomerular hypertrophy (in words)", "setting": "[2]; treatment weeks 16-32", "value": "significantly decreased; also recorded: partially reversed glomerular hypertrophy; also recorded: equally effective"}, {"measurement": "glomerulosclerosis (in words)", "setting": "[2]; treatment weeks 16-32", "value": "prevented by BMP-7 therapy more effectively than by Enalapril; also recorded: prevented the development of glomerulosclerosis; also recorded: markedly reduced; also recorded: prevented the development of glomerular sclerosis; also recorded: more effective than Enalapril; also recorded: decreased glomerular sclerosis; also recorded: significantly better than that of Enalapril"}, {"measurement": "interstitial volume (in words)", "setting": "[2]; treatment weeks 16-32", "value": "significantly decreased; also recorded: reversed the increase in the expanded interstitial volume; also recorded: equally effective"}, {"measurement": "systolic blood pressure (tail artery cuff)", "setting": "[2]; treatment weeks 16-32", "value": "did not effect blood pressure until the final four weeks of therapy; also recorded: had no effect on blood pressure until after 28 weeks; also recorded: blood pressures were normalized; also recorded: did not affect blood pressure until late in the course of the study; also recorded: did not affect blood pressure until the last four weeks of therapy"}, {"measurement": "urine protein excretion / proteinuria / albuminuria (in words)", "setting": "[2]; treatment weeks 16-32", "value": "reversed to normal; also recorded: more effective in reversing proteinuria; also recorded: dose dependently eliminated proteinuria; also recorded: more effective than Enalapril"}, {"measurement": "GFR (in words)", "setting": "[2]; treatment weeks 16-32, versus vehicle-treated diabetic and normal rats", "value": "normal or greater; also recorded: restored glomerular filtration rate to normal; also recorded: more effective than Enalapril; also recorded: restored GFR to normal or slightly above normal"}, {"measurement": "kidney weight / renal hypertrophy (in words)", "setting": "[2]; treatment weeks 16-32, versus vehicle-treated diabetic rats", "value": "equal in partially reversing kidney hypertrophy; also recorded: partially reversed diabetic renal hypertrophy; also recorded: partially restored kidney weights towards normal; also recorded: equally effective"}]}
